Experimental data: PMC8303780, “Mutational Analysis of Redβ Single Strand Annealing Protein: Roles of the 14 Lysine Residues in DNA Binding and Recombination In Vivo”
Positions count from the first letter of the chain named.

Assays:
Settings in all cases: protein: recombinant, tags: 6xHis removed by thrombin, residual N-terminal GSH
Redβ K154A = molecular target: T1, Redβ K154A (bacteriophage λ, UniProt P03698 1-261, K154A); experiment: EMSA; PBS; Anisotropy: 50 mM Tris-HCl pH 7.5, 1 mM DTT, 0.1 mg/mL BSA, 10 nM FAM48, 23 °C (Kd per monomer); gel assay: 10 µM Redβ, 50 µM nt of each oligo, PBS, 37 °C, 1% agarose at 22 °C
T1 sequence: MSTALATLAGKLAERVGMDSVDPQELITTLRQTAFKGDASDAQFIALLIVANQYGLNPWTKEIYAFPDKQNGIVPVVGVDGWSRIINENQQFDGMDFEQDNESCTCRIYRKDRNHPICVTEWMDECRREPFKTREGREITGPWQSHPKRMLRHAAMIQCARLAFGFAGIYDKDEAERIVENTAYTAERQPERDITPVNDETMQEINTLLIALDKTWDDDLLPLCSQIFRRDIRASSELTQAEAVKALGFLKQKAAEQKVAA

Redβ K148A = molecular target: T2, Redβ K148A (bacteriophage λ, UniProt P03698 1-261, K148A); experiment: as above
T2 sequence: T1 sequence with K148A, A154K

Redβ K172A = molecular target: T3, Redβ K172A (bacteriophage λ, UniProt P03698 1-261, K172A); experiment: as above
T3 sequence: T1 sequence with A154K, K172A

Redβ K111A = molecular target: T4, Redβ K111A (bacteriophage λ, UniProt P03698 1-261, K111A); experiment: as above
T4 sequence: T1 sequence with K111A, A154K

Redβ K132A = molecular target: T5, Redβ K132A (bacteriophage λ, UniProt P03698 1-261, K132A); experiment: as above
T5 sequence: T1 sequence with K132A, A154K

Redβ K61A = molecular target: T6, Redβ K61A (bacteriophage λ, UniProt P03698 1-261, K61A); experiment: as above
T6 sequence: T1 sequence with K61A, A154K

Redβ K69A = molecular target: T7, Redβ K69A (bacteriophage λ, UniProt P03698 1-261, K69A); experiment: EMSA; PBS; enhanced vs WT; Anisotropy: 50 mM Tris-HCl pH 7.5, 1 mM DTT, 0.1 mg/mL BSA, 10 nM FAM48, 23 °C (Kd per monomer); gel assay: 10 µM Redβ, 50 µM nt of each oligo, PBS, 37 °C, 1% agarose at 22 °C
T7 sequence: T1 sequence with K69A, A154K

## GCGGATGGCTTAGAGCAGAATCGCCCTGCATAGCTCGATTTTTGCGGATG (ssDNA) [Cy3 50-mer ssDNA]
Redβ K154A; label: 5'-Cy3
  binding result: no binding
Redβ K148A; label: 5'-Cy3
  binding result: no binding
Redβ K172A; label: 5'-Cy3
  binding result: no binding
Redβ K111A; label: 5'-Cy3
  binding result: no binding
Redβ K132A; label: 5'-Cy3
  binding result: no binding
Redβ K61A; label: 5'-Cy3
  binding result: no binding
Redβ K69A; label: 5'-Cy3
  binding result: binds

## CCATCCGCAAAAATCGAGCTATGCAGGGCGATTCTGCTCTAAGCCATCCG (ssDNA) [Cy5 50-mer ssDNA]
Redβ K154A; label: 5'-Cy5
  binding result: no binding
Redβ K148A; label: 5'-Cy5
  binding result: no binding
Redβ K172A; label: 5'-Cy5
  binding result: no binding
Redβ K111A; label: 5'-Cy5
  binding result: no binding
Redβ K132A; label: 5'-Cy5
  binding result: no binding
Redβ K61A; label: 5'-Cy5
  binding result: no binding
Redβ K69A; label: 5'-Cy5
  binding result: binds
